# Patent US20180155451A1 (published 2018)
# B1: GpH7-A5/GpH7-B3 variant Y296_08L/GpL16-k0 (antibody, human IgG1, kappa)
# heavy 1: not shown
# heavy 2: not shown
# light: DIVMTQSPLSLPVTPGEPASISCQASESLVHSNRNTYLHWYLQKPGQSPQLLIYKVSNRFSGVPDRFSGSGSGTDFTLKISRVEAEDVGVYYCSQNTHVPPTFGQGTKVEIERTVAAPSVFIFPPSDEQLKSGTASVVCLLNNFYPREAKVQWKVDNALQSGNSQESVTEQDSKDSTYSLSSTLTLSKADYEKHKVYACEVTHQGLSSPVTKSFNRGEC
# notes: heterodimerized antibody, mutation in one H chain only; also called Y296_08L He Ab
# B2: GpH7-A5/GpH7-B3 variant S337_14T/GpL16-k0 (antibody, human IgG1, kappa)
# heavy 1: not shown
# heavy 2: not shown
# light: B1 light
# notes: heterodimerized antibody, mutation in one H chain only; also called S337_14T He Ab
# B3: GpH7-A5/GpH7-B3 variant Y300_16H/GpL16-k0 (antibody, human IgG1, kappa)
# heavy 1: not shown
# heavy 2: not shown
# light: B1 light
# notes: heterodimerized antibody, mutation in one H chain only; also called Y300_16H He Ab
# B4: GpH7-A5/GpH7-B3 variant S324_09D/GpL16-k0 (antibody, human IgG1, kappa)
# heavy 1: not shown
# heavy 2: not shown
# light: B1 light
# notes: heterodimerized antibody, mutation in one H chain only; also called S324_09D He Ab
# B5: GpH7-A5/GpH7-B3 variant Y300_07I/GpL16-k0 (antibody, human IgG1, kappa)
# heavy 1: not shown
# heavy 2: not shown
# light: B1 light
# notes: heterodimerized antibody, mutation in one H chain only; also called Y300_07I He Ab
# B6: GpH7-A5/GpH7-B3 variant K334_14T/GpL16-k0 (antibody, human IgG1, kappa)
# heavy 1: not shown
# heavy 2: not shown
# light: B1 light
# notes: heterodimerized antibody, mutation in one H chain only; also called K334_14T He Ab
# B7: GpH7-A5/GpH7-B3 variant Y296_03V/GpL16-k0 (antibody, human IgG1, kappa)
# heavy 1: not shown
# heavy 2: not shown
# light: B1 light
# notes: heterodimerized antibody, mutation in one H chain only; also called Y296_03V He Ab
# B8: GpH7-A5/GpH7-B3 variant K334_13S/GpL16-k0 (antibody, human IgG1, kappa)
# heavy 1: not shown
# heavy 2: not shown
# light: B1 light
# notes: heterodimerized antibody, mutation in one H chain only; also called K334_13S He Ab
# B9: GpH7-A5/GpH7-B3 variant Y296_07I/GpL16-k0 (antibody, human IgG1, kappa)
# heavy 1: not shown
# heavy 2: not shown
# light: B1 light
# notes: heterodimerized antibody, mutation in one H chain only; also called Y296_07I He Ab
# B10: GpH7-A5/GpH7-B3 variant S239_10E/GpL16-k0 (antibody, human IgG1, kappa)
# heavy 1: not shown
# heavy 2: not shown
# light: B1 light
# notes: heterodimerized antibody, mutation in one H chain only; also called S239_10E He Ab
# B11: GpH7-A5/GpH7-B3 variant P271_10E/GpL16-k0 (antibody, human IgG1, kappa)
# heavy 1: not shown
# heavy 2: not shown
# light: B1 light
# notes: heterodimerized antibody, mutation in one H chain only; also called P271_10E He Ab
# B12: GpH7-A5/GpH7-B3 variant L328_15Y/GpL16-k0 (antibody, human IgG1, kappa)
# heavy 1: not shown
# heavy 2: not shown
# light: B1 light
# notes: heterodimerized antibody, mutation in one H chain only; also called L328_15Y He Ab
# B13: GpH7-A5/GpH7-B3 variant K334_02A/GpL16-k0 (antibody, human IgG1, kappa)
# heavy 1: not shown
# heavy 2: not shown
# light: B1 light
# notes: heterodimerized antibody, mutation in one H chain only; also called K334_02A He Ab
# B14: GpH7-A5/GpH7-B3 variant P271_18N/GpL16-k0 (antibody, human IgG1, kappa)
# heavy 1: not shown
# heavy 2: not shown
# light: B1 light
# notes: heterodimerized antibody, mutation in one H chain only; also called P271_18N He Ab
# B15: GpH7-A5/GpH7-B3 variant T335_01G/GpL16-k0 (antibody, human IgG1, kappa)
# heavy 1: not shown
# heavy 2: not shown
# light: B1 light
# notes: heterodimerized antibody, mutation in one H chain only; also called T335_01G He Ab
# B16: GpH7-A5/GpH7-B3 variant K334_19Q/GpL16-k0 (antibody, human IgG1, kappa)
# heavy 1: not shown
# heavy 2: not shown
# light: B1 light
# notes: heterodimerized antibody, mutation in one H chain only; also called K334_19Q He Ab
# B17: GpH7-A5/GpH7-B3 variant S337_11K/GpL16-k0 (antibody, human IgG1, kappa)
# heavy 1: not shown
# heavy 2: not shown
# light: B1 light
# notes: heterodimerized antibody, mutation in one H chain only; also called S337_11K He Ab
# B18: GpH7-A5/GpH7-B3 variant S267_06M/GpL16-k0 (antibody, human IgG1, kappa)
# heavy 1: not shown
# heavy 2: not shown
# light: B1 light
# notes: heterodimerized antibody, mutation in one H chain only; also called S267_06M He Ab
# B19: GpH7-A5/GpH7-B3 variant Q295_10E/GpL16-k0 (antibody, human IgG1, kappa)
# heavy 1: not shown
# heavy 2: not shown
# light: B1 light
# notes: heterodimerized antibody, mutation in one H chain only; also called Q295_10E He Ab
# B20: GpH7-A5/GpH7-B3 variant K334_15Y/GpL16-k0 (antibody, human IgG1, kappa)
# heavy 1: not shown
# heavy 2: not shown
# light: B1 light
# notes: heterodimerized antibody, mutation in one H chain only; also called K334_15Y He Ab
# B21: GpH7-A5/GpH7-B3 variant K326_04F/GpL16-k0 (antibody, human IgG1, kappa)
# heavy 1: not shown
# heavy 2: not shown
# light: B1 light
# notes: heterodimerized antibody, mutation in one H chain only; also called K326_04F He Ab
# B22: GpH7-A5/GpH7-B3 variant Y296_02A/GpL16-k0 (antibody, human IgG1, kappa)
# heavy 1: not shown
# heavy 2: not shown
# light: B1 light
# notes: heterodimerized antibody, mutation in one H chain only; also called Y296_02A He Ab
# B23: GpH7-A5/GpH7-B3 variant K326_07I/GpL16-k0 (antibody, human IgG1, kappa)
# heavy 1: not shown
# heavy 2: not shown
# light: B1 light
# notes: heterodimerized antibody, mutation in one H chain only; also called K326_07I He Ab
# B24: GpH7-A5/GpH7-B3 variant S324_10E/GpL16-k0 (antibody, human IgG1, kappa)
# heavy 1: not shown
# heavy 2: not shown
# light: B1 light
# notes: heterodimerized antibody, mutation in one H chain only; also called S324_10E He Ab
# B25: GpH7-A5/GpH7-B3 variant Q295_12R/GpL16-k0 (antibody, human IgG1, kappa)
# heavy 1: not shown
# heavy 2: not shown
# light: B1 light
# notes: heterodimerized antibody, mutation in one H chain only; also called Q295_12R He Ab
# B26: GpH7-A5/GpH7-B3 variant K326_10E/GpL16-k0 (antibody, human IgG1, kappa)
# heavy 1: not shown
# heavy 2: not shown
# light: B1 light
# notes: heterodimerized antibody, mutation in one H chain only; also called K326_10E He Ab
# B27: GpH7-A5/GpH7-B3 variant P271_01G/GpL16-k0 (antibody, human IgG1, kappa)
# heavy 1: not shown
# heavy 2: not shown
# light: B1 light
# notes: heterodimerized antibody, mutation in one H chain only; also called P271_01G He Ab
# B28: GpH7-A5/GpH7-B3 variant K334_18N/GpL16-k0 (antibody, human IgG1, kappa)
# heavy 1: not shown
# heavy 2: not shown
# light: B1 light
# notes: heterodimerized antibody, mutation in one H chain only; also called K334_18N He Ab
# Biological target: T1, FcγRIa extracellular domain with C-terminal His tag (human, UniProt P12314 16-292)
# T1 construct: extracellular domain; soluble analyte in Biacore; also called FcgRI; CD64
# T1 sequence (P12314 16-292): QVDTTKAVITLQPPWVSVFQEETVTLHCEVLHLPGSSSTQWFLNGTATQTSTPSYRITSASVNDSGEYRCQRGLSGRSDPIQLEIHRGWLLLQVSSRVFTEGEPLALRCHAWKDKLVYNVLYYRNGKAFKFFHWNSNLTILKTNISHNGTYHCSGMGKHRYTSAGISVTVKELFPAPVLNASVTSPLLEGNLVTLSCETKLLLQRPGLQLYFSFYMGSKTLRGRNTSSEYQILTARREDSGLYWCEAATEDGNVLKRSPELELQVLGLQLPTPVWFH
# Assay: SPR (Biacore), relative FcγRIa binding, GpH7-A5/GpH7-B3/GpL16-k0 (HeCon Ab) = 100
row,He/Con_1a,Binder
1,104 % of control,B1
2,105 % of control,B2
3,111 % of control,B3
4,104 % of control,B4
5,108 % of control,B5
6,105 % of control,B6
7,104 % of control,B7
8,105 % of control,B8
9,104 % of control,B9
10,105 % of control,B10
11,103 % of control,B11
12,102 % of control,B12
13,106 % of control,B13
14,103 % of control,B14
15,104 % of control,B15
16,106 % of control,B16
17,104 % of control,B17
18,106 % of control,B18
19,103 % of control,B19
20,105 % of control,B20
21,102 % of control,B21
22,103 % of control,B22
23,101 % of control,B23
24,105 % of control,B24
25,100 % of control,B25
26,104 % of control,B26
27,105 % of control,B27
28,105 % of control,B28
